Source: US20260248972A1, “DUAL RECEPTOR TARGETING RADIOLIGANDS AND USES THEREOF RELATED APPLICATIONS” (priority 2022, published 2026)
*1 amine or outer side, *2 acyl side, *3 side chain or, on linkers, in order; H or OH if unused. Where a SMILES comes first, the peptide text is derived from it. Bridges are numbered along the chain shown (N, C = ends). Side-chain parts run from the residue outwards. [ ]: non-standard residue; d: D form. The star is where a group is joined. X1 = CC(C)(C)C(=O)CN1C(=O)[C@H](N*)CN(C2CCCCC2)c2ccccc21; DOTA = O=C(O)CN1CCN(CC(=O)O)CCN(CC(=O)*)CCN(CC(=O)O)CC1; 3Abz = Nc1cccc(C(=O)O)c1; CO = O=C([*:1])[*:2]

Assay: in vivo
Details: BALB/c nude, mouse, in vivo, iv, total radioactivity
Procedure: To a 0.5 M NaOAc buffer (20-50 μL, pH=4.5) was added 4 μL of exemplary or comparator compound in DMSO stock solution (2000 μM) and 2 mCi ^177Lu (ITM Isotope Technologies Munich), the resulting mixture was heated to 95° C. for 15 min. The resulting product was analyzed by radio-TLC and radio-HPLC (column: Shim-pack GIST 5 μm 4.6*150 mm; buffer A: 0.2% formic acid H2O; buffer B: 0.1% formic acid acetonitrile; flow rate: 1 mL/min; gradient: 0-5 min: 10% B to 95% B; then 5-8 min: 95% B). The labelled products were used immediately or diluted by a PBS buffer containing freshly added 3 mg/mL ascorbate.
All animal care and experimental procedure were performed by following the animal protocols approved by the ethics committee of China Institute of Radiation Protection. The BALB/c nude mice (Charles River, Beijing) were utilized for these studies. Mice were below 5 per cage in sterile, microisolator cages under temperature- and humidity-controlled conditions with a 12 h light/12 h dark schedule and fed irradiated rodent chow and reverse osmosis (RO) sterile water ad libitum. In preparation for tumor cell inoculations, mice were anesthetized with isoflurane (RWD Life Science Inc.) at an induction rate of 4% and maintained at a rate of 2.5% with 0.4 L oxygen delivered via precision vaporizer and a non-rebreathing apparatus. These mice received subcutaneous rear flank injections of approximately 4×10^6 AR42J cells ([…] pancreatic cancer cell line) suspended in 200 μL of phosphate-buffered saline (PBS) and Matrigel (Corning) (1/1). Xenografted tumors were allowed to grow for ~2-4 weeks post-inoculation and ranged in mass from 0.05 to 0.50 g (average tumor size, 0.20 g). […] The mice were euthanized, and the tissues and organs were excised from the animals at 4, 24 and 72 h post-injection. The tissues and organs were weighed, counted in a PerkinElmer 2480 WIZARD2 γ counter, and the percent injected dose (% ID) and % ID/g of each organ or tissue were calculated.

## C[C@@H](O)[C@H](NC(=O)[C@@H]1CSSC[C@H](NC(=O)[C@@H](Cc2ccccc2)NC(=O)[C@H](CCCCNC(=O)COCCOCCNC(=O)c2cccc(NC(=O)N[C@@H]3CN(C4CCCCC4)c4ccccc4N(CC(=O)C(C)(C)C)C3=O)c2)NC(=O)CN2CCN(CC(=O)O)CCN(CC(=O)O)CCN(CC(=O)O)CC2)C(=O)N[C@@H](Cc2ccc(O)cc2)C(=O)N[C@H](Cc2c[nH]c3ccccc23)C(=O)N[C@@H](CCCCN)C(=O)N[C@@H]([C@@H](C)O)C(=O)N1)C(=O)O [^177Lu-I-36, metal not drawn]
% ID/g Adrenal gland
  tissue uptake at 4 h: 2.48 %ID/g
  tissue uptake at 24 h: 1.67 %ID/g
  tissue uptake at 72 h: 0.87 %ID/g
% ID/g Blood
  tissue uptake at 4 h: 2.09 %ID/g
  tissue uptake at 24 h: 0.7 %ID/g
  tissue uptake at 72 h: 0.21 %ID/g
% ID/g Fat
  tissue uptake at 4 h: 3.32 %ID/g
  tissue uptake at 24 h: 2.39 %ID/g
  tissue uptake at 72 h: 1.12 %ID/g
% ID/g Femur
  tissue uptake at 4 h: 0.79 %ID/g
  tissue uptake at 24 h: 0.76 %ID/g
  tissue uptake at 72 h: 0.59 %ID/g
% ID/g Heart
  tissue uptake at 4 h: 1.36 %ID/g
  tissue uptake at 24 h: 0.85 %ID/g
  tissue uptake at 72 h: 0.47 %ID/g
% ID/g Intestine
  tissue uptake at 4 h: 2.27 %ID/g
  tissue uptake at 24 h: 1.29 %ID/g
  tissue uptake at 72 h: 1.39 %ID/g
% ID/g Kidney
  tissue uptake at 4 h: 20.7 %ID/g
  tissue uptake at 24 h: 18.4 %ID/g
  tissue uptake at 72 h: 14.2 %ID/g
% ID/g Liver
  tissue uptake at 4 h: 12 %ID/g
  tissue uptake at 24 h: 7.22 %ID/g
  tissue uptake at 72 h: 3.99 %ID/g
% ID/g Lung
  tissue uptake at 4 h: 2.89 %ID/g
  tissue uptake at 24 h: 1.72 %ID/g
  tissue uptake at 72 h: 1.36 %ID/g
% ID/g Muscle
  tissue uptake at 4 h: 0.41 %ID/g
  tissue uptake at 24 h: 0.25 %ID/g
  tissue uptake at 72 h: 0.13 %ID/g
% ID/g Pancreas
  tissue uptake at 4 h: 5.66 %ID/g
  tissue uptake at 24 h: 3.34 %ID/g
  tissue uptake at 72 h: 1.28 %ID/g
% ID/g Spleen
  tissue uptake at 4 h: 0.97 %ID/g
  tissue uptake at 24 h: 0.85 %ID/g
  tissue uptake at 72 h: 0.36 %ID/g
% ID/g Stomach
  tissue uptake at 4 h: 6.6 %ID/g
  tissue uptake at 24 h: 5.96 %ID/g
  tissue uptake at 72 h: 3.8 %ID/g
% ID/g Tumor
  tissue uptake at 4 h: 45.1 %ID/g
  tissue uptake at 24 h: 35.2 %ID/g
  tissue uptake at 72 h: 36.4 %ID/g

## C[C@@H](O)[C@H](NC(=O)[C@@H]1CSSC[C@H](NC(=O)[C@@H](Cc2ccccc2)NC(=O)CNC(=O)[C@H]2CCCN2C(=O)CNC(=O)[C@H]2CCCN2C(=O)CNC(=O)[C@H](CCCCNC(=O)c2cccc(NC(=O)N[C@@H]3CN(C4CCCCC4)c4ccccc4N(CC(=O)C(C)(C)C)C3=O)c2)NC(=O)CN2CCN(CC(=O)O)CCN(CC(=O)O)CCN(CC(=O)O)CC2)C(=O)N[C@@H](Cc2ccc(O)cc2)C(=O)N[C@H](Cc2c[nH]c3ccccc23)C(=O)N[C@@H](CCCCN)C(=O)N[C@@H]([C@@H](C)O)C(=O)N1)C(=O)O [Compound I-55, DOTA-K(Z360)-G-p-G-p-G-f[CYwKTC]T-OH] ({DOTA}-K([3Abz-CO-X1])G[dP]G[dP]G[dF]CY[dW]KTCT-OH; disulfide 8-13)
T/K Tumor/Kidney ratio
  tissue to tissue ratio at 24 h: 1.1
T/L Tumor/Liver ratio
  tissue to tissue ratio at 24 h: 2.5
T/P Tumor/Pancreas ratio
  tissue to tissue ratio at 24 h: 14
T/Sp Tumor/Spleen ratio
  tissue to tissue ratio at 24 h: 34
T/St Tumor/Stomach ratio
  tissue to tissue ratio at 24 h: 7.3
Uptake Kidney
  tissue uptake at 24 h: 20.8 %ID/g
Uptake Liver
  tissue uptake at 24 h: 9.21 %ID/g
Uptake Pancreas
  tissue uptake at 24 h: 1.66 %ID/g
Uptake Spleen
  tissue uptake at 24 h: 0.67 %ID/g
Uptake Stomach
  tissue uptake at 24 h: 3.13 %ID/g
Uptake Tumor
  tissue uptake at 24 h: 23 %ID/g

## C[C@@H](O)[C@H](NC(=O)[C@@H]1CSSC[C@H](NC(=O)[C@@H](Cc2ccccc2)NC(=O)CCOCCOCCOCCOCCOCCOCCNC(=O)[C@H](CCCCNC(=O)c2cccc(NC(=O)N[C@@H]3CN(C4CCCCC4)c4ccccc4N(CC(=O)C(C)(C)C)C3=O)c2)NC(=O)CN2CCN(CC(=O)O)CCN(CC(=O)O)CCN(CC(=O)O)CC2)C(=O)N[C@@H](Cc2ccc(O)cc2)C(=O)N[C@H](Cc2c[nH]c3ccccc23)C(=O)N[C@@H](CCCCN)C(=O)N[C@@H]([C@@H](C)O)C(=O)N1)C(=O)O [Compound I-40, DOTA-K(Z360)-PEG6-f[CYwKTC]T-OH]
T/K Tumor/Kidney ratio
  tissue to tissue ratio at 24 h: 2
T/L Tumor/Liver ratio
  tissue to tissue ratio at 24 h: 5.7
T/P Tumor/Pancreas ratio
  tissue to tissue ratio at 24 h: 59
T/Sp Tumor/Spleen ratio
  tissue to tissue ratio at 24 h: 53
T/St Tumor/Stomach ratio
  tissue to tissue ratio at 24 h: 10
Uptake Kidney
  tissue uptake at 24 h: 8.9 %ID/g
Uptake Liver
  tissue uptake at 24 h: 3.1 %ID/g
Uptake Pancreas
  tissue uptake at 24 h: 0.3 %ID/g
Uptake Spleen
  tissue uptake at 24 h: 0.3 %ID/g
Uptake Stomach
  tissue uptake at 24 h: 1.8 %ID/g
Uptake Tumor
  tissue uptake at 24 h: 17.9 %ID/g

## C[C@@H](O)[C@H](NC(=O)[C@@H]1CSSC[C@H](NC(=O)[C@@H](Cc2ccccc2)NC(=O)CNC(=O)[C@H](CO)NC(=O)CNC(=O)[C@H](CCCCNC(=O)c2cccc(NC(=O)N[C@@H]3CN(C4CCCCC4)c4ccccc4N(CC(=O)C(C)(C)C)C3=O)c2)NC(=O)CN2CCN(CC(=O)O)CCN(CC(=O)O)CCN(CC(=O)O)CC2)C(=O)N[C@@H](Cc2ccc(O)cc2)C(=O)N[C@H](Cc2c[nH]c3ccccc23)C(=O)N[C@@H](CCCCN)C(=O)N[C@@H]([C@@H](C)O)C(=O)N1)C(=O)O [Compound I-54, DOTA-K(Z360)-G-S-G-f[CYwKTC]T-OH] ({DOTA}-K([3Abz-CO-X1])GSG[dF]CY[dW]KTCT-OH; disulfide 6-11)
T/K Tumor/Kidney ratio
  tissue to tissue ratio at 24 h: 2.4
T/L Tumor/Liver ratio
  tissue to tissue ratio at 24 h: 2.7
T/P Tumor/Pancreas ratio
  tissue to tissue ratio at 24 h: 9.7
T/Sp Tumor/Spleen ratio
  tissue to tissue ratio at 24 h: 36
T/St Tumor/Stomach ratio
  tissue to tissue ratio at 24 h: 6.3
Uptake Kidney
  tissue uptake at 24 h: 10.5 %ID/g
Uptake Liver
  tissue uptake at 24 h: 9.6 %ID/g
Uptake Pancreas
  tissue uptake at 24 h: 2.65 %ID/g
Uptake Spleen
  tissue uptake at 24 h: 0.71 %ID/g
Uptake Stomach
  tissue uptake at 24 h: 4.1 %ID/g
Uptake Tumor
  tissue uptake at 24 h: 25.8 %ID/g

## CC(C)(C)C(=O)CN1C(=O)[C@H](NC(=O)Nc2cccc(C(=O)N[C@@H](CCC(=O)N[C@@H](CCC(=O)N[C@@H](CCC(=O)N[C@@H](CCCCNC(=O)COCCOCCNC(=O)COCCOCCNC(=O)CCC(C(=O)O)N3CCN(CC(=O)O)CCN(CC(=O)O)CCN(CC(=O)O)CC3)C(N)=O)C(=O)O)C(=O)O)C(=O)O)c2)CN(C2CCCCC2)c2ccccc21 (some centres unmarked) [^177Lu-C-4, metal not drawn, reference compound]
% ID/g Blood
  tissue uptake at 4 h: 0.09 %ID/g
  tissue uptake at 24 h: 0.01 %ID/g
% ID/g Femur
  tissue uptake at 4 h: 0.04 %ID/g
  tissue uptake at 24 h: 0.04 %ID/g
% ID/g Heart
  tissue uptake at 4 h: 0.07 %ID/g
  tissue uptake at 24 h: 0.03 %ID/g
% ID/g Intestine
  tissue uptake at 4 h: 0.12 %ID/g
  tissue uptake at 24 h: 0.04 %ID/g
% ID/g Kidney
  tissue uptake at 4 h: 3.38 %ID/g
  tissue uptake at 24 h: 1.32 %ID/g
% ID/g Liver
  tissue uptake at 4 h: 0.17 %ID/g
  tissue uptake at 24 h: 0.11 %ID/g
% ID/g Lung
  tissue uptake at 4 h: 0.07 %ID/g
  tissue uptake at 24 h: 0.03 %ID/g
% ID/g Muscle
  tissue uptake at 4 h: 0.02 %ID/g
  tissue uptake at 24 h: 0.01 %ID/g
% ID/g Pancreas
  tissue uptake at 4 h: 0.03 %ID/g
  tissue uptake at 24 h: 0.01 %ID/g
% ID/g Spleen
  tissue uptake at 4 h: 0.06 %ID/g
  tissue uptake at 24 h: 0.02 %ID/g
% ID/g Stomach
  tissue uptake at 4 h: 0.06 %ID/g
  tissue uptake at 24 h: 0.03 %ID/g
% ID/g Tumor
  tissue uptake at 4 h: 4.69 %ID/g
  tissue uptake at 24 h: 1.44 %ID/g

## C[C@@H](O)[C@H](NC(=O)[C@@H]1CSSC[C@H](NC(=O)[C@@H](Cc2ccccc2)NC(=O)COCCOCCNC(=O)[C@H](CCCCNC(=O)CC[C@H](NC(=O)CNC(=O)c2cccc(NC(=O)N[C@@H]3CN(C4CCCCC4)c4ccccc4N(CC(=O)C(C)(C)C)C3=O)c2)C(=O)O)NC(=O)COCCOCCNC(=O)COCCOCCNC(=O)COCCOCCNC(=O)COCCOCCNC(=O)COCCOCCNC(=O)CC[C@H](NC(=O)CN2CCN(CC(=O)O)CCN(CC(=O)O)CCN(CC(=O)O)CC2)C(=O)O)C(=O)N[C@@H](Cc2ccc(O)cc2)C(=O)N[C@H](Cc2c[nH]c3ccccc23)C(=O)N[C@@H](CCCCN)C(=O)N[C@@H]([C@@H](C)O)C(=O)N1)C(=O)O [Compound I-22, DOTA-gE-OEG-OEG-OEG-OEG-OEG-K(-gE-G-Z360)-OEG-f[CYwKTC]T-OH)]
T/K Tumor/Kidney ratio
  tissue to tissue ratio at 24 h: 0.6
T/L Tumor/Liver ratio
  tissue to tissue ratio at 24 h: 12
T/P Tumor/Pancreas ratio
  tissue to tissue ratio at 24 h: 5
T/Sp Tumor/Spleen ratio
  tissue to tissue ratio at 24 h: 12
T/St Tumor/Stomach ratio
  tissue to tissue ratio at 24 h: 7.5
Uptake Kidney
  tissue uptake at 24 h: 21.9 %ID/g
Uptake Liver
  tissue uptake at 24 h: 1.1 %ID/g
Uptake Pancreas
  tissue uptake at 24 h: 2.6 %ID/g
Uptake Spleen
  tissue uptake at 24 h: 1.1 %ID/g
Uptake Stomach
  tissue uptake at 24 h: 1.7 %ID/g
Uptake Tumor
  tissue uptake at 24 h: 12.7 %ID/g
